This note sets out measurements from patent publication US20060058253, “Methods to reprogram splice site selection in pre-messenger rnas” (published 2006).

Conditions in all cases: tags: GST
The target of series [1] is T1, UP1 (shortened hnRNP A1), GST fusion (UniProt P09651 P09651:1-196). Kind of series: EMSA. The protocol:
(§1) A shortened version of recombinant hnRNP A1 (GST-UP1) was used for testing binding affinity. Each labeled oligo was incubated with increasing amounts of GST-UP1 (0.5 and 1 μg). The TS10 oligo is a telomeric DNA oligo of 60 nt containing nine high-affinity A1 binding sites. Complexes were fractionated in a 5% acrylamide gel. The position of the free oligos and complexes is shown. (C) Pre-mRNAs were incubated in a HeLa extract for 2 hours in the presence of increasing amounts of oligonucleotides (0.01, 0.02, 0.05, 0.1, 0.5 pmoles in 12.5 μl reaction). The RNA was extracted and fractionated on a denaturing 11% acrylamide gel. The position of the pre-mRNAs, splicing intermediates and products is indicated. (D) Based on the results obtained in panel C, the relative use of proximal and distal splicing was compiled, expressed as a ratio of percentages and plotted relative to the amount of oligo used. (E) Labeled pre-mRNAs were incubated as above in the presence of increasing amounts of oligonucleotides (0.01, 0.02, 0.05, 0.1, 0.5 pmoles in 12.5 μl reaction). The RNA was extracted and fractionated on a denaturing 11% acrylamide gel. The position of the pre-mRNAs, splicing intermediates and products is indicated. (F) Labeled pre-mRNAs were incubated with increasing amounts of oligonucleotides (0.01, 0.02, 0.05, 0.1, 0.5 pmoles in 12.5 μl reaction). […]
For orientation: A gel shift assay detects complexes by their altered migration in electrophoresis.

Series [2] concerns the target T1, UP1 (shortened hnRNP A1), GST fusion. Kind of series: EMSA. The source holds these as a separate data set.
For series [3] the target is unchanged. Kind of series: EMSA; best UP1 binder (printed X4-A1W).
Series [4] has the same target. The experiment in a line: EMSA; text prints X-M4A1W as non-binder, evidently X-M4A1M.
Series [5] shares this target. Kind of series: EMSA; best binder; 0.5 and 1 ug GST-UP1. The protocol: as §1

T1 sequence (P09651 1-196, one chain of several): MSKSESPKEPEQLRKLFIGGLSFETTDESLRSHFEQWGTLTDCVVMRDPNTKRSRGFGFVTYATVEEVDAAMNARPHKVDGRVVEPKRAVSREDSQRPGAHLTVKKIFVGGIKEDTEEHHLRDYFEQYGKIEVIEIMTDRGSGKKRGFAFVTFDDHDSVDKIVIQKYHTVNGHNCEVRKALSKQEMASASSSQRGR

For UACCACCGCCAAAGCCGCCU (ssRNA) [C5-M4], the binding result in series [1] is “no binding”.

GCCGCCGUUCUCCUGGAUCC (ssRNA, 2'-OMe) [X-M4]: the binding result in series [2] is “no binding”.

For the molecule UAUGAUAGGGACUUAGGGUGGCCGCCGUUCUCCUGGAUCC (ssRNA, 2'-OMe) [X-M4A1W], the binding result in series [3] is given as “binds”.

Regarding UAUGAUACGCACUUACGCUGGCCGCCGUUCUCCUGGAUCC (ssRNA, 2'-OMe) [X-M4A1M], in series [4], the binding result is reported as “no binding”.

Turning to UUCUUACCCAGCCGCCGUUC (ssRNA, 2'-OMe) [X-5], the binding result in series [2] is given as “no binding”.

As for UAUGAUAGGGACUUAGGGUGUACCACCGCCAAAGCCGCCU (ssRNA) [C5-M4A1W], the binding result in series [5] is “binds”.

On to UAUGAUACGCACUUACGCUGUACCACCGCCAAAGCCGCCU (ssRNA) [C5-M4A1M], for which, in series [1], the binding result is “no binding”.
